In patent publication US20260317437 (published 2026):

Experiments:
[1] = target: T1, GCGR extracellular domain (human, UniProt P47871); assay: SPR
[2] = target: T1, GCGR extracellular domain; assay: SPR; remark: listed apart in the source

T1 sequence (P47871 26-477): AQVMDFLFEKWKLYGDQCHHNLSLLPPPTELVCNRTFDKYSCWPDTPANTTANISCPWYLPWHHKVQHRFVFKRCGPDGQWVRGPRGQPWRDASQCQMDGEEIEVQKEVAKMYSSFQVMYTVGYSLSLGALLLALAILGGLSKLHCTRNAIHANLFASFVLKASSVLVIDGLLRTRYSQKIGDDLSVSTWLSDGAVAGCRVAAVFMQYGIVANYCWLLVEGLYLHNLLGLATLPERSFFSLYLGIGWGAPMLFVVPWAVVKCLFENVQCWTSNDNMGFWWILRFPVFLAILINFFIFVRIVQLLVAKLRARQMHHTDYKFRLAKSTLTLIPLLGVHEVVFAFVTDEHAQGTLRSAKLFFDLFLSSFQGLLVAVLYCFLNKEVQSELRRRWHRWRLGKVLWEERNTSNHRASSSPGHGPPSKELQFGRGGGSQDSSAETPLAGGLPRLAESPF

| Binder | binding result [1] | Kd [2] |
| --- | --- | --- |
| VH Y30I (antibody, V domains shown) VH: EVQLVESGGGLVQPGGSLRLSCAASGFNIIYNYIHWVRQAPGKGLEWVAEFSPYSGSTYYADSVKGRFTISADTSKNTAYLQMNSLRAEDTAVYYCARSAAIVDWYDYFKGFDYWGQGTLVTVSS VL: DIQMTQSPSSLSASVGDRVTITCRASQSVSSAVAWYQQKPGKAPKLLIYSASSLYSGVPSRFSGSRSGTDFTLTISSLQPEDFATYYCQQYGSYLYTFGQGTKVEIK |  | 5.54 nM |
| VL Y91H (antibody, V domains shown) VH: EVQLVESGGGLVQPGGSLRLSCAASGFNIYYNYIHWVRQAPGKGLEWVAEFSPYSGSTYYADSVKGRFTISADTSKNTAYLQMNSLRAEDTAVYYCARSAAIVDWYDYFKGFDYWGQGTLVTVSS VL: DIQMTQSPSSLSASVGDRVTITCRASQSVSSAVAWYQQKPGKAPKLLIYSASSLYSGVPSRFSGSRSGTDFTLTISSLQPEDFATYYCQQHGSYLYTFGQGTKVEIK |  | 2.82 nM |
| VH Y30E (antibody, V domains shown) VH: EVQLVESGGGLVQPGGSLRLSCAASGFNIEYNYIHWVRQAPGKGLEWVAEFSPYSGSTYYADSVKGRFTISADTSKNTAYLQMNSLRAEDTAVYYCARSAAIVDWYDYFKGFDYWGQGTLVTVSS VL: DIQMTQSPSSLSASVGDRVTITCRASQSVSSAVAWYQQKPGKAPKLLIYSASSLYSGVPSRFSGSRSGTDFTLTISSLQPEDFATYYCQQYGSYLYTFGQGTKVEIK |  | 45.1 nM |
| VL Y91L (antibody, V domains shown) VH: EVQLVESGGGLVQPGGSLRLSCAASGFNIYYNYIHWVRQAPGKGLEWVAEFSPYSGSTYYADSVKGRFTISADTSKNTAYLQMNSLRAEDTAVYYCARSAAIVDWYDYFKGFDYWGQGTLVTVSS VL: DIQMTQSPSSLSASVGDRVTITCRASQSVSSAVAWYQQKPGKAPKLLIYSASSLYSGVPSRFSGSRSGTDFTLTISSLQPEDFATYYCQQLGSYLYTFGQGTKVEIK |  | 4.2 nM |
| VH Y31F (antibody, V domains shown) VH: EVQLVESGGGLVQPGGSLRLSCAASGFNIYFNYIHWVRQAPGKGLEWVAEFSPYSGSTYYADSVKGRFTISADTSKNTAYLQMNSLRAEDTAVYYCARSAAIVDWYDYFKGFDYWGQGTLVTVSS VL: DIQMTQSPSSLSASVGDRVTITCRASQSVSSAVAWYQQKPGKAPKLLIYSASSLYSGVPSRFSGSRSGTDFTLTISSLQPEDFATYYCQQYGSYLYTFGQGTKVEIK |  | 6.94 nM |
| VL S93V (antibody, V domains shown) VH: EVQLVESGGGLVQPGGSLRLSCAASGFNIYYNYIHWVRQAPGKGLEWVAEFSPYSGSTYYADSVKGRFTISADTSKNTAYLQMNSLRAEDTAVYYCARSAAIVDWYDYFKGFDYWGQGTLVTVSS VL: DIQMTQSPSSLSASVGDRVTITCRASQSVSSAVAWYQQKPGKAPKLLIYSASSLYSGVPSRFSGSRSGTDFTLTISSLQPEDFATYYCQQYGVYLYTFGQGTKVEIK |  | 1.74 nM |
| VH Y30N (antibody, V domains shown) VH: EVQLVESGGGLVQPGGSLRLSCAASGFNINYNYIHWVRQAPGKGLEWVAEFSPYSGSTYYADSVKGRFTISADTSKNTAYLQMNSLRAEDTAVYYCARSAAIVDWYDYFKGFDYWGQGTLVTVSS VL: DIQMTQSPSSLSASVGDRVTITCRASQSVSSAVAWYQQKPGKAPKLLIYSASSLYSGVPSRFSGSRSGTDFTLTISSLQPEDFATYYCQQYGSYLYTFGQGTKVEIK |  | 103 nM |
| VH W100aH (antibody, V domains shown) VH: EVQLVESGGGLVQPGGSLRLSCAASGFNIYYNYIHWVRQAPGKGLEWVAEFSPYSGSTYYADSVKGRFTISADTSKNTAYLQMNSLRAEDTAVYYCARSAAIVDHYDYFKGFDYWGQGTLVTVSS VL: DIQMTQSPSSLSASVGDRVTITCRASQSVSSAVAWYQQKPGKAPKLLIYSASSLYSGVPSRFSGSRSGTDFTLTISSLQPEDFATYYCQQYGSYLYTFGQGTKVEIK |  | 41.7 nM |
| VH S54R (antibody, V domains shown) VH: EVQLVESGGGLVQPGGSLRLSCAASGFNIYYNYIHWVRQAPGKGLEWVAEFSPYRGSTYYADSVKGRFTISADTSKNTAYLQMNSLRAEDTAVYYCARSAAIVDWYDYFKGFDYWGQGTLVTVSS VL: DIQMTQSPSSLSASVGDRVTITCRASQSVSSAVAWYQQKPGKAPKLLIYSASSLYSGVPSRFSGSRSGTDFTLTISSLQPEDFATYYCQQYGSYLYTFGQGTKVEIK |  | 16 nM |
| VL Y91D (antibody, V domains shown) VH: EVQLVESGGGLVQPGGSLRLSCAASGFNIYYNYIHWVRQAPGKGLEWVAEFSPYSGSTYYADSVKGRFTISADTSKNTAYLQMNSLRAEDTAVYYCARSAAIVDWYDYFKGFDYWGQGTLVTVSS VL: DIQMTQSPSSLSASVGDRVTITCRASQSVSSAVAWYQQKPGKAPKLLIYSASSLYSGVPSRFSGSRSGTDFTLTISSLQPEDFATYYCQQDGSYLYTFGQGTKVEIK |  | 7.08 nM |
| VH Y30A (antibody, V domains shown) VH: EVQLVESGGGLVQPGGSLRLSCAASGFNIAYNYIHWVRQAPGKGLEWVAEFSPYSGSTYYADSVKGRFTISADTSKNTAYLQMNSLRAEDTAVYYCARSAAIVDWYDYFKGFDYWGQGTLVTVSS VL: DIQMTQSPSSLSASVGDRVTITCRASQSVSSAVAWYQQKPGKAPKLLIYSASSLYSGVPSRFSGSRSGTDFTLTISSLQPEDFATYYCQQYGSYLYTFGQGTKVEIK |  | 21.3 nM |
| VL Y91T (antibody, V domains shown) VH: EVQLVESGGGLVQPGGSLRLSCAASGFNIYYNYIHWVRQAPGKGLEWVAEFSPYSGSTYYADSVKGRFTISADTSKNTAYLQMNSLRAEDTAVYYCARSAAIVDWYDYFKGFDYWGQGTLVTVSS VL: DIQMTQSPSSLSASVGDRVTITCRASQSVSSAVAWYQQKPGKAPKLLIYSASSLYSGVPSRFSGSRSGTDFTLTISSLQPEDFATYYCQQTGSYLYTFGQGTKVEIK |  | 2.42 nM |
| VH Y31H (antibody, V domains shown) VH: EVQLVESGGGLVQPGGSLRLSCAASGFNIYHNYIHWVRQAPGKGLEWVAEFSPYSGSTYYADSVKGRFTISADTSKNTAYLQMNSLRAEDTAVYYCARSAAIVDWYDYFKGFDYWGQGTLVTVSS VL: DIQMTQSPSSLSASVGDRVTITCRASQSVSSAVAWYQQKPGKAPKLLIYSASSLYSGVPSRFSGSRSGTDFTLTISSLQPEDFATYYCQQYGSYLYTFGQGTKVEIK |  | 17.5 nM |

Other lines, results leading:

| binding result [1] | Kd [2] | Binder |
| --- | --- | --- |
| no binding |  | VH Y31W (antibody, V domains shown) VH: EVQLVESGGGLVQPGGSLRLSCAASGFNIYWNYIHWVRQAPGKGLEWVAEFSPYSGSTYYADSVKGRFTISADTSKNTAYLQMNSLRAEDTAVYYCARSAAIVDWYDYFKGFDYWGQGTLVTVSS VL: DIQMTQSPSSLSASVGDRVTITCRASQSVSSAVAWYQQKPGKAPKLLIYSASSLYSGVPSRFSGSRSGTDFTLTISSLQPEDFATYYCQQYGSYLYTFGQGTKVEIK |
|  | 2.08 nM | VL Y94Q (antibody, V domains shown) VH: EVQLVESGGGLVQPGGSLRLSCAASGFNIYYNYIHWVRQAPGKGLEWVAEFSPYSGSTYYADSVKGRFTISADTSKNTAYLQMNSLRAEDTAVYYCARSAAIVDWYDYFKGFDYWGQGTLVTVSS VL: DIQMTQSPSSLSASVGDRVTITCRASQSVSSAVAWYQQKPGKAPKLLIYSASSLYSGVPSRFSGSRSGTDFTLTISSLQPEDFATYYCQQYGSQLYTFGQGTKVEIK |
| no binding |  | VH Y31I (antibody, V domains shown) VH: EVQLVESGGGLVQPGGSLRLSCAASGFNIYINYIHWVRQAPGKGLEWVAEFSPYSGSTYYADSVKGRFTISADTSKNTAYLQMNSLRAEDTAVYYCARSAAIVDWYDYFKGFDYWGQGTLVTVSS VL: DIQMTQSPSSLSASVGDRVTITCRASQSVSSAVAWYQQKPGKAPKLLIYSASSLYSGVPSRFSGSRSGTDFTLTISSLQPEDFATYYCQQYGSYLYTFGQGTKVEIK |
|  | 2.64 nM | VL Y94A (antibody, V domains shown) VH: EVQLVESGGGLVQPGGSLRLSCAASGFNIYYNYIHWVRQAPGKGLEWVAEFSPYSGSTYYADSVKGRFTISADTSKNTAYLQMNSLRAEDTAVYYCARSAAIVDWYDYFKGFDYWGQGTLVTVSS VL: DIQMTQSPSSLSASVGDRVTITCRASQSVSSAVAWYQQKPGKAPKLLIYSASSLYSGVPSRFSGSRSGTDFTLTISSLQPEDFATYYCQQYGSALYTFGQGTKVEIK |
|  | 2.08 nM | VL Y94S (antibody, V domains shown) VH: EVQLVESGGGLVQPGGSLRLSCAASGFNIYYNYIHWVRQAPGKGLEWVAEFSPYSGSTYYADSVKGRFTISADTSKNTAYLQMNSLRAEDTAVYYCARSAAIVDWYDYFKGFDYWGQGTLVTVSS VL: DIQMTQSPSSLSASVGDRVTITCRASQSVSSAVAWYQQKPGKAPKLLIYSASSLYSGVPSRFSGSRSGTDFTLTISSLQPEDFATYYCQQYGSSLYTFGQGTKVEIK |
|  | 2.71 nM | VL Y94T (antibody, V domains shown) VH: EVQLVESGGGLVQPGGSLRLSCAASGFNIYYNYIHWVRQAPGKGLEWVAEFSPYSGSTYYADSVKGRFTISADTSKNTAYLQMNSLRAEDTAVYYCARSAAIVDWYDYFKGFDYWGQGTLVTVSS VL: DIQMTQSPSSLSASVGDRVTITCRASQSVSSAVAWYQQKPGKAPKLLIYSASSLYSGVPSRFSGSRSGTDFTLTISSLQPEDFATYYCQQYGSTLYTFGQGTKVEIK |
| no binding |  | VH Y31D (antibody, V domains shown) VH: EVQLVESGGGLVQPGGSLRLSCAASGFNIYDNYIHWVRQAPGKGLEWVAEFSPYSGSTYYADSVKGRFTISADTSKNTAYLQMNSLRAEDTAVYYCARSAAIVDWYDYFKGFDYWGQGTLVTVSS VL: DIQMTQSPSSLSASVGDRVTITCRASQSVSSAVAWYQQKPGKAPKLLIYSASSLYSGVPSRFSGSRSGTDFTLTISSLQPEDFATYYCQQYGSYLYTFGQGTKVEIK |
|  | 1.84 nM | VL Y94N (antibody, V domains shown) VH: EVQLVESGGGLVQPGGSLRLSCAASGFNIYYNYIHWVRQAPGKGLEWVAEFSPYSGSTYYADSVKGRFTISADTSKNTAYLQMNSLRAEDTAVYYCARSAAIVDWYDYFKGFDYWGQGTLVTVSS VL: DIQMTQSPSSLSASVGDRVTITCRASQSVSSAVAWYQQKPGKAPKLLIYSASSLYSGVPSRFSGSRSGTDFTLTISSLQPEDFATYYCQQYGSNLYTFGQGTKVEIK |
